Measurements from PMC4017629 (Journal of molecular biology, 2014).
Values joined by “and” are separate entries in the source; they are usually repeats but may differ in a detail not shown here. Equal entries are not always repeated. Blank lines part the entries; values can stand above or below the molecule they belong to.

Key:
[1] = molecular target: C-terminal multimerization domain of AbrB (AbrBC), residues 54-94 (B. subtilis); assay: SEC
[2] = molecular target: T1, N-terminal DNA-binding domain of AbrB (AbrBN), residues 1-53 (B. subtilis); assay: AUC
T1 sequence (P08874 whole entry, looked up): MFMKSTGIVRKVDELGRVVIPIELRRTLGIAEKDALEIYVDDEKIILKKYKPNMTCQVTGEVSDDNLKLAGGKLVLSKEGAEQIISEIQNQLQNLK

[3] = molecular target: T1, N-terminal DNA-binding domain of AbrB (AbrBN), residues 1-53 (B. subtilis); assay: SEC
[4] = molecular target: T2, Full-length AbrB from B. subtilis (B. subtilis, UniProt P08874 1-96); assay: ITC
T2 sequence (looked up): T1 sequence (P08874 whole entry, looked up)

[5] = molecular target: the molecule itself; assay: SEC

stoichiometry N [1]: 2
Molecule: C-terminal multimerization domain of AbrB (AbrBC), residues 54-94 (domain or fragment)

stoichiometry N [2]: 2
stoichiometry N [3]: 2
Molecule: N-terminal DNA-binding domain of AbrB (AbrBN), residues 1-53 (domain or fragment)

Kd [4]: 16 nM and 11 to 21 nM
stoichiometry N [4]: 0.868 to 0.969 (2×) and 0.918
stoichiometry N (AbbA chains per AbrBN chain (2:2)) [2]: 1
B1: AbbA (anti-repressor protein AbbA from B. subtilis), histidine tag removed (natural protein, UniProt O31697 1-65, looked up)
chain: MRMSLIGERFTEEEQKLLLNILINHEYAIELLSSEINDIETGTKNVDGTTYKKLVTLYDRFRFEN
stoichiometry N [5]: 2
